T1: human thyroglobulin (TG) peptide on HLA-A*02:01 (human)
T1 peptide: LVLEIFTLL

T2: human thyroglobulin (TG) peptide on HLA-A*02:01 (human)
T2 peptide: NLFGGKFLV


Legend:
[1] = molecular target: T1, human thyroglobulin (TG) peptide on …; test: cytokine release
Description: (§1) Interferon (IFN)-γ release by transduced PBL was determined as previously described in Wang et al., J. Immunol. Methods, 366(1-2): 43-51 (2011). Briefly, retrovirally-transduced cells (1×10⁵) were co-cultured with 5×10⁴ target cells (XTC, XTC/A2, Cos A2, or Cos A2 transfected with TG) or control tumor cell lines for 18-22 hrs in RPMI with 10% FBS at 37° C., 5% CO₂. On the subsequent day, IFN-γ secretion was determined by enzyme-linked immunosorbent assay (ELISA).

[2] = molecular target: T2, human thyroglobulin (TG) peptide on …; test: cytokine release
Description: as §1

binding result [1] | binding result [2] | Binder
recognises | – | human anti-TG TCR (TCR, V domains shown) Valpha: RKEVEQDPGPFNVPEGATVAFNCTYSNSASQSFFWYRQDCRKEPKLLMSVYSSGNEDGRFTAQLNRASQYISLLIRDSKLSDSATYLCVVHSSNTGKLIFGQGTTLQVKP Vbeta: NAGVTQTPKFQVLKTGQSMTLQCAQDMNHEYMSWYRQDPGMGLRLIHYSVGAGITDQGEVPNGYNVSRSTTEDFPLRLLSAAPSQTSVYFCASSYSLTSGGALVSYEQYFGPGTRLTVT
– | recognises | murine anti-TG TCR (TCR, V domains shown) Valpha: GEQVEQRPPHLSVREGDSAVIICTYTDPNSYYFFWYKQEPGAGLQLLMKVFSSTEINEGQGFTVLLNKKDKQLSLNLTAAHPGDSAVYFCAVSSSGSWQLIFGSGTQLTVMP Vbeta: NSKVIQTPRYLVKGQGQKAKMRCIPEKGHPVVFWYQQNKNNEFKFLINFQNQEVLQQIDMTEKRFSAECPSNSPCSLEIQSSEAGDSALYLCASLGGSQDTQYFGPGTRLLVL

— US20180244768A1 (published 2018)
